Measurements reported in patent US20040260069A1 (Merck KGaA, published 2004).

Tests used:
[1] = molecular target: T1, TNF alpha (PeproTech EC Ltd, London, UK) (human, UniProt P01375 77-233); experiment: plate ELISA, TNF alpha coated at 2.5 µg/ml, anti-human IgG-HRP detection
T1 construct: also called tumor necrosis factor alpha

biotinylated TNF alpha = molecular target: T2, biotinylated TNF alpha (human, UniProt P01375 77-233, biotinylated using EZ link Sulfo-NHS-biotin (sites not given)); experiment: competition ELISA, antibody against plate-bound TNF alpha RII-Fc for biotin-TNF alpha
T2 construct: also called biotin-TNF alpha
T2 sequence (P01375 77-233 limits assumed): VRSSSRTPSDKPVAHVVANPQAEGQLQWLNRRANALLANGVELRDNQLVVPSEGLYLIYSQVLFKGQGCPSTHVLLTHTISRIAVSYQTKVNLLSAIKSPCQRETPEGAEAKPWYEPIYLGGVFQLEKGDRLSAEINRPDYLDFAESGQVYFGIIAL

T1 sequence (P01375 77-233 limits assumed): as above

- binding result [1]: binds
- binding result (biotinylated TNF alpha): binds
B1: modified anti-TNF alpha antibody Vh5/Vk12 (antibody, human IgG1, V domains shown)
VH: EVKLEESGGGLVQPGGSLRLSCAASGFTFSNHWMNWVRQSPEKGLEWVAETRSKSTNSATHYAESVKGRFTISRDDSKNSLYLQMNSLKTEDTGVYYCSRNYYGSTYDYWGQGTTVTVSS
VL: DIQLTQSPDTSSASPGERASFSCRASQFVGSSIHWYQHTTNGSPRLLIKYASESMSGVPSRFSGSGSGTDFTLTINSLEAEDAATYYCQQSHSWPFTFGSGTNLEVKR
notes: Expressed in NS/0 cells as whole antibody with a human IgG1 constant region (vector pSVgpt) and a human kappa constant region (vector pSVhyg); also called modified antibody of the invention; preferred antibody of the present invention
